Laboratory results from patent publication US7572612B2, “Method of production of para-hydroxycinnamic acid using a thermostable TAL enzyme” (E.I. du Pont de Nemours and Company, priority 2006, dated 2009).

Key:
[1] = Kinetic parameters of the PcTAL enzyme for tyrosine; assay type: biochemical; conditions: from kcat/KM, 45° C., 100 mM CAPS pH 9.5
Procedure: The kinetic parameters of the PcTAL enzyme for tyrosine and phenylalanine were determined at 45° C., in 100 mM CAPS, pH 9.5 buffer. The increase of TAL and PAL activities with increasing substrate concentrations followed the typical Michaelis-Menton equation. The kcat of the enzyme was 1.3 S^−1 for tyrosine, and 3.3 S^−1 for phenylalanine. The KM was 44 μM for tyrosine and 161 μM for phenylalanine. The kcat/KM value was slightly higher for tyrosine (3.0 M^−1 S^−1) than for phenylalanine (2.1 M^−1 S^−1), indicating the enzyme's slight preference for tyrosine (PAL/TAL ratio of 0.7). […] The substrate specificity of the PcTAL enzyme is therefore similar to other known fungal PAL/TAL enzymes, such as that from R. glutinis, with dual specificity for tyrosine and phenylalanine.

[2] = Conversion of tyrosine to pHCA in 3 L Applikon BioReactors; assay type: cell-based, E. coli
Procedure: The following experiment was performed in an Applikon BioReactor (9.0 liter working volume) where pH and temperature of the reaction were controlled. Both strains DPD5154 and DPD5124 were tested. The E. coli DPD5154 (PcTAL) cells were produced by the protocol described in Example 6, with a final cell density of […]. In the case of E. coli DPD5124 (RgTAL) the inoculum was grown in a 2.0 L shake flask containing 500 ml of the following medium (in grams per liter) KH2PO4 (2.0 g/L), K2HPO4 (13.0 g/L), (NH4)2HPO4 […]), MgSO4.7H2O (1.0 g/L), yeast extract (2.0 g/L), Ferric Ammonium Citrate (0.1 g/L). The pH was adjusted to 7.0 and the medium steam sterilized. Glucose (30.0 g/L) and ampicillin (50 mg/L) were added post-sterilization. The culture was grown in 2 L flasks with 500 mL medium, at 35° C. to about OD550 of 2.0 and then the entire contents was used to inoculate the fermentor. The fermentor was controlled at 36° C., pH 6.8, with the dissolved oxygen (DO) tension of 25% controlled with cascade of agitation and air flow with agitation from 400 to 1000 rpm and airflow from 2 to 16 SLPM. The overhead pressure was 0.5. When the glucose level reached below 4.0 g/L a glucose feed program with 60% glucose (w/w) was initiated, consisting of: first 4 h at 0.36 g/min, next 12 h at 0.73 g/min and to the end of run at 0.56 g/min. When the culture reached an OD550 of 35, arabinose was added to final concentration of 0.5 g/L The fermentation was terminated 20 h after arabinose addition. The final cell density in the fermentation broth was an OD550 of 90 and the final volume was about 9 liter. The g dcw/L was determined assuming that 1.0 OD550 contained 0.33 g dcw/L:=30 g dcw/L.
The cells were harvested by centrifugation and stored as a frozen paste at −80° C. until use. Before use, the cell paste was thawed and suspended in the saline solution to about 10% w/v. The cell dry weight concentration was calculated from [cells wet weight]×[% solids] where [% solids] was determined after drying the cells in a vacuum oven, at 90° C. for >16 h.
The tyrosine used was AR grade (J. T. Baker). It was suspended in distilled, deionized water at 33% w/w concentration, homogenized in a blender and added to about 50 g/L final concentration. Reactions were conducted in 3 L Applikon BioReactors (Applikon, De Brauwweg 13, The Netherlands), with a 1-2 L working volume. The set points for the control systems were pH 9.9 with automatic addition of NaOH 25% w/v with agitation at 400 rpm. The bioconversion was typically done by adding the tyrosine suspension to the appropriate concentration, adjusting the pH and temperature to the determined set point, adding the cell suspension to the appropriate concentration, and DI water to the final volume.

[3] = Bioconversion of tyrosine to pHCA by cell suspensions in 50 ml tubes; assay type: cell-based, E. coli; conditions: pH 9.9, 0.5 g dcw/L, 20 g/L tyrosine (Example 11)
Procedure: A suspension of DPD5154 cells in ˜75 ml of saline solution (8.5 g NaCl/L) with a cell concentration at an OD550 of 221.47 was used. The desired OD550 of 2.998 (0.989 g dcw/L) was achieved through serial dilution of the original sample. The cell suspension was equilibrated to 50° C., titrated to pH 9.9 and stored at 50° C. A tyrosine stock of 40 g/L at pH 9.9 was also prepared and stored at 50° C. Reactions measuring bioconversion of tyrosine to pHCA by the cell suspension were carried out at the following temperatures: 34° C., 39° C., 47° C., and 59° C. Each reaction was initiated by adding 5.0 ml of the cell suspension to 5.0 ml of the 40 g/L tyrosine solution in a 50 ml disposable conical tube. The final concentration of cells in each reaction was 0.5 g dcw/L. The final concentration of tyrosine in each reaction was 20 g/L (110 mM). All reactions were incubated at the temperatures indicated above with shaking at 180 rpm. Samples (750 μl) were taken at 30, 60, 90, 120 minutes, centrifuged (14,000×g for ˜8 minutes), the supernatants filtered through 0.2 um filters (Costar #8161), and the filtrates diluted using 50 mM Tris/HCl, pH 7.5. The filtrates were analyzed by HPLC for the amount of pHCA as described in General Methods. The optimum reaction temperature among those temperatures tested was determined to be 39° C., and the reaction slowed down dramatically at 59° C. […]
To determine the optimum pH (between pH 9.8-11.0) for the bioconversion reaction of tyrosine to pHCA at 42° C. using strain DPD5154, reactions were performed as described in Example 11. Tyrosine solutions (40 g/L concentration) were titrated to pH 9.8, 10.0, 10.2, 10.5, and 11.0 and stored at 42° C. Reactions were initiated by adding 5.0 ml of cell suspension to 5.0 ml of each tyrosine solution in a 50 ml disposable conical tube. The final concentration of cells in each reaction was 0.5 g dcw/L and the final concentration of tyrosine was 20 g/L (110 mM). Reactions were incubated at 42° C. with shaking at 180 rpm.

[4] = 30 C., cell conc 6 g/L, reaction time 19 h
[5] = 35 C., cell conc 6 g/L, reaction time 15 h
[6] = 40 C., cell conc 6 g/L, reaction time 7 h
[7] = 43 C., cell conc 6 g/L, reaction time 6 h
[8] = 45 C., cell conc 2 g/L, reaction time 19 h
[9] = 45 C., cell conc 4 g/L, reaction time 10 h
[10] = 45 C., cell conc 6 g/L, reaction time 6 h
[11] = 48 C., cell conc 6 g/L, reaction time 6 h

B1: PcTAL: thermostable tyrosine ammonia lyase (PAL/TAL) enzyme from Phanerochaete chrysosporium, SEQ ID NO:1 (protein, listed as Phanerochaete chrysosporium)
chain: MPSRIDYYTSSGNGYAQSRKSSAIYPASASTGHAAPSTERKPELLDKFVEAYDELQSYREGKPVIVDGHNLSIPAVAATARFGAAVVLDENPETHERVLQSRRVIVDKVSTQRSVYGVSTGFGGSADTRTSDPLQLGHALLQHQHVGVLPTQTESPLPALPLGDPLATTSMPEAWVRGAILIRMNSLIRGHSGVRWELIEKMGELLRENITPLVPLRGSISASGDLSPLSYIAGTLIGSPAIRVFDGPASYGARRILPSNIALANHGVAPIPLSSKEHLGILNGTAFSASVGALALNEAVHLSLLAQVCTAMGTEAMIGAVGSFDAFIHDTARPHPGQVEVARNVRTLLEDSQMAVKAEDEVHIAEDEGELRQDRYPLRTAAQFLGPQIEDILSAHETVTLECNSTTDNPLIDGETGTVHHGGNFQAMAVTNAMEKTRLAIHHIGKLLFAQATELINPMMNRGLPPNLAATDPSHNYFAKGVDIHLAAYVGELGFLASPVSSHIQSAEMHNQAVNSLALVSARYTISALDVLSLLTAAYLYVLCQALDLRAMHNDLQSSLSAIVRELLPKHFPSAAKRADALLPILERTIFRALNSSSSADCKARMVSVAASTTTPLVDFLSADAALASELANITAFRTELATRAADALTTLRTQYLEGARGAAPASKYLGKTRPVYEFVRVTLNVPMHGRENLHNFEMGPGVEDGIIGNNISTIYEAIRDGKMQNVVMQLVKSIKA
PAL/TAL ratio [1]: 0.7
Prod g/L-h [2, 4]: 2.20 g/L-h
Prod g/g-h [2, 4]: 0.37 g/g-h
Prod g/L-h [2, 5]: 2.79 g/L-h
Prod g/g-h [2, 5]: 0.46 g/g-h
Prod g/L-h [2, 6]: 5.94 g/L-h
Prod g/g-h [2, 6]: 0.99 g/g-h
Prod g/L-h [2, 7]: 6.90 g/L-h
Prod g/g-h [2, 7]: 1.15 g/g-h
Prod g/L-h [2, 8]: 2.22 g/L-h
Prod g/g-h [2, 8]: 1.11 g/g-h
Prod g/L-h [2, 9]: 4.18 g/L-h
Prod g/g-h [2, 9]: 1.05 g/g-h
Prod g/L-h [2, 10]: 6.83 g/L-h
Prod g/g-h [2, 10]: 1.14 g/g-h
Prod g/L-h [2, 11]: 7.00 g/L-h
Prod g/g-h [2, 11]: 1.17 g/g-h
pHCA (mM) formed in 2 h ([3]; 34° C.): 5.0 mM
pHCA (mM) formed in 2 h ([3]; 39° C.): 6.2 mM
pHCA (mM) formed in 2 h ([3]; 47° C.): 4.7 mM
pHCA (mM) formed in 2 h ([3]; 59° C.): 0.02 mM
